Assay results from the supplement of paper PMC10724198.
± gives the standard deviation of the averaged measurements.

These sequences were tested on Saccharomyces cerevisiae (assay: protein stability index of tFT-peptide fusion (C-terminal peptide) (PSI (0-1 scale)); higher = more stable (slower turnover)). Settings: genetic background: wild type; temperature: 30 C.
Method: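 Multiplexed protein stability (MPS) profiling in S. cerevisiae. Random 12-aa peptides (tFT-X12 library) are fused to the C-terminus of a sfGFP-mCherry tandem fluorescent timer, after mCherry and a GGGS linker. Cells are FACS-sorted into 8 mCherry/sfGFP bins and deep-sequenced. The protein stability index (PSI) is the read-weighted bin average, scaled from 0 (unstable) to 1 (stable). Only peptides with >10 reads are reported; cells were grown at 30 °C in SC-His with glucose.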
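Further: PSI is a weighted mean of sequencing reads over stability bins, variants kept only with over 10 reads, mCherry proximal and sfGFP distal, peptide attached via GGGS linker.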

Row | Sequence | protein stability index
1 | DWEPGGGGRMVG | 0.703 ± 0.081
2 | RLGVTVPLSGTV | 0.5342 ± 0.00099
3 | AVERGGRGRVVG | 0.639 ± 0.04
4 | GGLRRMGVRPCA | 0.715 ± 0.21
5 | LERSTCYPREPM | 0.69 ± 0.1
6 | FHVFTRTVGSVL | 0.643 ± 0.075
7 | AIPRPPRVWGHL | 0.727 ± 0.016
8 | SHAAKRYNHPHS | 0.7333 ± 0.00094
9 | LPTSPMSCHTLT | 0.76 ± 0.088
10 | YNINIKKENITE | 0.68 ± 0.025
11 | GKNKSKKEKKEK | 0.668 ± 0.032
12 | SPCMLLAVPHRL | 0.728 ± 0.044
13 | PVNQRPDGGNQD | 0.764 ± 0.016
14 | WVGSWYVATGEA | 0.754 ± 0.063
15 | SPPHTGMLRLLT | 0.7 ± 0.063
16 | ATIRSSQGFKIY | 0.612 ± 0.013
17 | PLSPRSASTFSP | 0.67 ± 0.0013
18 | SCDLRALALLGG | 0.707 ± 0.07
19 | RNTPTATHHTTG | 0.681 ± 0.026
20 | IETQKNNKLRRL | 0.699 ± 0.015
21 | GRRRDREAVVPW | 0.732 ± 0.032
22 | PPPPAPSPPPSP | 0.717 ± 0.0094
23 | PTPLCPPLAVRL | 0.691 ± 0.032
24 | IVALDGWPGVEA | 0.7226 ± 0.0055
25 | ESHSIIRRRSWW | 0.7797 ± 0.0037

Row | Sequence | protein stability index
26 | SPPPAPRPPLPP | 0.709 ± 0.041
27 | VVSSSMGCCFRG | 0.659 ± 0.076
28 | LLLASSHAPYLH | 0.77 ± 0.021
29 | PACSPLPPLPLS | 0.7 ± 0.018
30 | DRSSVLSPFHPL | 0.76 ± 0.019
31 | FPPIDLPPPSPS | 0.687 ± 0.027
32 | FMFFMGLFVGGW | 0.5401 ± 0.0026
33 | YIKAPCMRQSGG | 0.704 ± 0.019
34 | PPPLSPPLPFFV | 0.666 ± 0.036
35 | GGCSCLGVGCLS | 0.675 ± 0.045
36 | PSCFFPFPPRPL | 0.727 ± 0.04
37 | TKKKRKKKNTKK | 0.685 ± 0.061
38 | PPLSSSALPARS | 0.692 ± 0.011
39 | HTKNCTRAVSDR | 0.673 ± 0.085
40 | LQATFRRHLNLV | 0.655 ± 0.032
41 | KKQHTIKKKKKR | 0.734 ± 0.028
42 | TCRGGNPFRACC | 0.707 ± 0.054
43 | AIILGPPIGWTK | 0.757 ± 0.026
44 | PPPSDPLPPSVR | 0.7044 ± 0.0067
45 | LPPPPSASPPRP | 0.794 ± 0.06
46 | SFVFSVFGAGVD | 0.778 ± 0.014
47 | PPPPPAPPPTPL | 0.556 ± 0.011
48 | LPLIRQLPNPPP | 0.648 ± 0.031
49 | VRGLHRRFEPSN | 0.8 ± 0.088
50 | PSDTSHPAWRAN | 0.708 ± 0.025

Row | Sequence | protein stability index
51 | SSERVLVRRRGS | 0.566 ± 0.12
52 | APIQPGEDKLKR | 0.64 ± 0.0099
53 | IAGRPSSGFPLL | 0.686 ± 0.066
54 | THPPPGPHPSAA | 0.717 ± 0.017
55 | AWECCFLGRSGV | 0.846 ± 0.075
56 | RGGGRGVWGHVV | 0.607 ± 0.0063
57 | RSCAGGVGAVFF | 0.758 ± 0.055
58 | TPPSHTVGIWAS | 0.683 ± 0.039
59 | QAYGFEDISFSI | 0.808 ± 0.076
60 | GSSGRFFHVVVF | 0.644 ± 0.074
61 | AKRKEAGKPHAN | 0.695 ± 0.085
62 | PTWGRSDESKAM | 0.744 ± 0.0099
63 | FCSSSSFMCFVQ | 0.629 ± 0.0082
64 | WFSGFLGEFNRF | 0.706 ± 0.063
65 | PPPLPTRPPPSA | 0.649 ± 0.0082
66 | VFESGRYLRVAP | 0.777 ± 0.05
67 | LQRAPKLLPSSS | 0.683 ± 0.03
68 | PPHNPTPSPTTP | 0.719 ± 0.11
69 | RGVGEGFRAGCG | 0.672 ± 0.0098
70 | FYWFPYYFSHLH | 0.602 ± 0.048
71 | IEKKKIDNKVKS | 0.712 ± 0.079
72 | KRSVSIESMTQA | 0.699 ± 0.011
73 | RNHHPHHVPTSR | 0.667 ± 0.03
74 | GTVHQQGGPIDG | 0.676 ± 0.033
75 | FGPAQGYCLVGA | 0.544 ± 0.025

Row | Sequence | protein stability index
76 | TGAGGPGPRNRK | 0.774 ± 0.064
77 | RLPFLPPPPCPP | 0.716 ± 0.046
78 | LRVGMSSASVFQ | 0.733 ± 0.03
79 | PPPIPPFRLSRS | 0.69 ± 0.061
80 | CQGHFAAKTEKI | 0.684 ± 0.019
81 | SSGSRCQQKIRY | 0.66 ± 0.11
82 | PSGSVLAEGRGP | 0.678 ± 0.077
83 | FLLSFPCAHFLL | 0.598 ± 0.056
84 | CQSRLPSTKNRH | 0.695 ± 0.015
85 | PVVTGGFHIVGF | 0.793 ± 0.078
86 | RGRGRGGPLSGG | 0.731 ± 0.017
87 | CCFFPPPGRTRQ | 0.676 ± 0.015
88 | GFPGLFCGPVRF | 0.742 ± 0.054
89 | SPPRLPPLAAPP | 0.676 ± 0.07
90 | QKGGGGEVGAEG | 0.699 ± 0.066
91 | CTRTREDPKIGI | 0.714 ± 0.024
92 | LSSSVIFALPLP | 0.767 ± 0.034
93 | VCGLCGGFMGLA | 0.69 ± 0.042
94 | FGSLCPRAHSLV | 0.71 ± 0.011
95 | VTEWGVKWWEDR | 0.714 ± 0.11
96 | VAVCGTTNGKNA | 0.75 ± 0.033
97 | KNQTDRRKKIIN | 0.648 ± 0.039
98 | HLPPSRPSFSAP | 0.747 ± 0.015
